Source: patent US20250353921A1
“And” between values parts separate entries of the source, which are not always exact repeats. Equal values may be shown once. One block for each substance: values may come before it.

How the values were obtained:
[1] = target: Human OX40 (Acro Biosystems, catalog NO: OXO-H5224) protein (human) (UniProt P43489); assay: SPR Biacore 8K+, single cycle kinetics, antibody captured by anti-human Fc, OX40 analyte, pH 7.4, 25 °C
[2] = target: human OX40 (TNFRSF4, CD134) on cells (human) (UniProt P43489); assay: cell-based or functional assay
[3] = target: human OX40 (TNFRSF4, CD134) on cells (human) (UniProt P43489); assay: flow cytometry on Jurkat-NFκB (OX40) cells, detection with anti-human IgG Fc-AF647

human OX40 (TNFRSF4, CD134) on cells (human), sequence (P43489 29-277 limits assumed): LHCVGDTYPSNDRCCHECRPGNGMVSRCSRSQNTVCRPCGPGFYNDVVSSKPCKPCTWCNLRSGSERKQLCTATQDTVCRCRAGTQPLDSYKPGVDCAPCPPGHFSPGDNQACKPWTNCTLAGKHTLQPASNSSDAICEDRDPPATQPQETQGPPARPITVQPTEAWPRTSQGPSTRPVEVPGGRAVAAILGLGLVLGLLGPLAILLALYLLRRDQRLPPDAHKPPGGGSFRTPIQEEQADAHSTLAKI
Human OX40 (Acro Biosystems, catalog NO: OXO-H5224) protein (human), sequence (P43489 29-216 limits assumed): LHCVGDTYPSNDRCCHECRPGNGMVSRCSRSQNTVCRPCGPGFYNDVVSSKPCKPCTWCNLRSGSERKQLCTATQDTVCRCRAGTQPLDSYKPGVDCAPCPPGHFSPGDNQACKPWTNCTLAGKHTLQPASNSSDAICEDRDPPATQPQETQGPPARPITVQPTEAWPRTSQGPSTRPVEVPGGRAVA

Kd [1]: 3 nM
ADCC EC50, activated T cells [2]: 0.008 nM
ADCC EC50, in vitro differentiated Tregs [2]: 0.005 nM
ADCC EC50, regulatory T cells (LDH release) [2]: 0.05 nM
EC50, inhibition of IL-2 release [2]: 5.87 nM
EC50, inhibition of IL-4 release [2]: 1.77 nM
EC50, inhibition of IL-5 release [2]: 18.6 nM
EC50, inhibition of IL-8 release [2]: 4.05 nM
EC50, inhibition of IL-10 release [2]: 20.3 nM
EC50, inhibition of IL-13 release [2]: 4 nM
EC50, inhibition of IL-17a release [2]: 11.7 nM
EC50, inhibition of IL-21 release [2]: 2.75 nM
EC50, inhibition of IL-22 release [2]: 10.4 nM
EC50, inhibition of IL-31 release [2]: 1.84 nM
EC50, inhibition of T cell proliferation [2]: 0.15 nM and 0.019 µg/ml
EC50, inhibition of TNF-α release [2]: 3.9 nM
responders (Resp) of donors tested, coated T cell agonism assay (responders of 9 donors) [2]: 7
Substance: AMG451 (rocatinlimab) (antibody)
Maximum killing (%), ADCC, activated T cells [2]: 60.3%
Maximum killing (%), ADCC, regulatory T cells [2]: 85.8%

luminescence, Jurkat-NFκB-OX40 agonism assay [2]: 3 fold
Substance: IMG-007 (antibody)

average proliferation index (Av), coated T cell agonism assay [2]: 1.16
responders (Resp) of donors tested, coated T cell agonism assay (responders of 15 donors) [2]: 0
Substance: IgG1 control (antibody)
Maximum killing (%), ADCC, activated T cells [2]: 2.27%
Maximum killing (%), ADCC, regulatory T cells [2]: -0.83%

average proliferation index (Av), coated T cell agonism assay [2]: 3.41
luminescence, Jurkat-NFκB-OX40 agonism assay [2]: > 2 fold
responders (Resp) of donors tested, coated T cell agonism assay (responders of 11 donors) [2]: 9
EC50 (read off the curve) [3]: 0.1 µg/mL
Substance: MEDI0562 (humanized 9B12, tavolixizumab) (antibody)
